Earlier results as cited in US12419862B2, “Use of a cathepsin s inhibitor against the formation of anti-drug antibodies” (Hoffmann-La Roche Inc., priority 2018, dated 2025).

Settings: current standard of care in IBD; cited from earlier work

infliximab: anti-TNFalpha antibody, known to be highly immunogenic
reported immunogenicity rates: up to 51%

adalimumab
reported immunogenicity rates: ≤ 26%
